{"source": "paper PMC10279719", "binders": {"B1": {"name": "PEAK1 tandem-pT1165 peptide (residues 1152-1171) (peptide)", "peptide": "Ac-PPPLPKKMIIRAN[pT]EPISKD-NH2"}, "B2": {"name": "PEAK2 tandem peptide, non-phosphorylated (residues 812-831) (peptide)", "peptide": "Ac-PPPLPQKKIVSRAASSPDGF-NH2"}, "B3": {"name": "full length CrkII, dimer (CrkII^FL dimer), P46108-1 1-304 (natural protein)", "chain": "MAGNFDSEERSSWYWGRLSRQEAVALLQGQRHGVFLVRDSSTSPGDYVLSVSENSRVSHYIINSSGPRPPVPPSPAQPPPGVSPSRLRIGDQEFDSLPALLEFYKIHYLDTTTLIEPVSRSRQGSGVILRQEEAEYVRALFDFNGNDEEDLPFKKGDILRIRDKPEEQWWNAEDSEGKRGMIPVPYVEKYRPASASVSALIGGNQEGSHPQPLGGPEPGPYAQPSVNTPLPNLQNGPIYARVIQKRVPNAYDKTALALEVGELVKVTKINVSGQWEGECNGKRGHFPFTHVRLLDQQNPDEDFS", "modifications": "here or on the partner: biotin (EZ-Link NHS-PEG4-Biotin, 1:1 molar ratio) where it was immobilised (a1); phosphorylated with Src kinase (Y24 is the site shown for PEAK3^FL by MS/MS); other Src sites not stated; biotin (EZ-Link NHS-PEG4-Biotin, 1:1 molar ratio)"}, "B4": {"name": "full length CrkII, monomer (CrkII^FL monomer), P46108-1 1-304 (natural protein)", "chain": "B3 chain", "modifications": "here or on the partner: biotin (EZ-Link NHS-PEG4-Biotin, 1:1 molar ratio) where it was immobilised (a1); biotin (EZ-Link NHS-PEG4-Biotin, 1:1 molar ratio)"}, "B5": {"name": "full length CrkII, dimer (CrkIIFL dimer), P46108-1 1-304 (natural protein)", "chain": "B3 chain", "modifications": "here or on the partner: biotin (EZ-Link NHS-PEG4-Biotin) in the SPR experiment only; biotin (EZ-Link NHS-PEG4-Biotin) in the SPR experiment only"}, "B6": {"name": "PEAK1 tandem peptide, non-phosphorylated (residues 1152-1171) (peptide)", "peptide": "Ac-PPPLPKKMIIRANTEPISKD-NH2"}}, "key": {"[1]": {"target": "14-3-3σ (sigma) (human)", "sequence (A8K1N0 whole entry, canonical isoform)": "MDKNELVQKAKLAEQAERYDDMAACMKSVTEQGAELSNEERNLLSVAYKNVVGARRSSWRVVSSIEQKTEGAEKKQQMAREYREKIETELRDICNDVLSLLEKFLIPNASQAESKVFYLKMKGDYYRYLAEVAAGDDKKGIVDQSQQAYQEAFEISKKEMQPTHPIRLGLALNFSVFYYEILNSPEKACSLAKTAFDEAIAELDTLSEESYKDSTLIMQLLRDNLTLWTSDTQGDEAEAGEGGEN", "assay": "SPR; 14-3-3 isoforms amine coupled to a CM5 chip, tandem peptides as analytes (10 µM-10 nM for PEAK3 tandem-pS69, 20 µM-20 nM for all others); Biacore S200, 20 °C, HBS-TP; steady state, 1:1 model"}, "[2]": {"target": "14-3-3η (residues 1-246) (human)", "assay": "SPR; 14-3-3 isoforms amine coupled to a CM5 chip, tandem peptides as analytes (10 µM-10 nM for PEAK3 tandem-pS69, 20 µM-20 nM for all others); Biacore S200, 20 °C, HBS-TP; steady state, 1:1 model"}, "[3]": {"target": "14-3-3γ (residues 1-247) (human)", "assay": "SPR; 14-3-3 isoforms amine coupled to a CM5 chip, tandem peptides as analytes (10 µM-10 nM for PEAK3 tandem-pS69, 20 µM-20 nM for all others); Biacore S200, 20 °C, HBS-TP; steady state, 1:1 model"}, "[4]": {"target": "T1, full length PEAK3 (PEAK3^FL, residues 1-473), from E. coli, phosphorylated by Src (human), Q6ZS72", "T1 chain": "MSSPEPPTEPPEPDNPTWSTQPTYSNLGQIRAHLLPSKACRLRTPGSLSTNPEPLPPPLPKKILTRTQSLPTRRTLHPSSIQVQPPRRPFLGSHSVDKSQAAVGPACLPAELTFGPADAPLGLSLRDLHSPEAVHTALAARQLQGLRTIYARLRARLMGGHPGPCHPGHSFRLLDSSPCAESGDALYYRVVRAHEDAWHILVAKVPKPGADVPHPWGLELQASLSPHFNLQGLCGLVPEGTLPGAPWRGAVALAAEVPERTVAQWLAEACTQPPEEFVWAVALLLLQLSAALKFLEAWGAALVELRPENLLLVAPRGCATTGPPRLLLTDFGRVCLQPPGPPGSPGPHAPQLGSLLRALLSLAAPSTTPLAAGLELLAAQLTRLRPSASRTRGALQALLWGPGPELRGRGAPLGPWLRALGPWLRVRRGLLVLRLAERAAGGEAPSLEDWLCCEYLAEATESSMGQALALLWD", "assay": "SPR; biotinylated PEAK proteins (with or without Src phosphorylation) captured with a biotin CAPture kit; Grb2 FL, Grb2 SH2, CrkII SH2, CrkII FL monomer or dimer as analytes; Biacore 8K+, 20 °C, HBS-TP with NaCl raised to 500 mM; 1 M NaCl regeneration; steady state", "conditions": "remark: other sources report otherwise"}, "[5]": {"target": "T2, full length PEAK3 (PEAK3^FL, residues 1-473), from E. coli (human), Q6ZS72", "T2 chain": "T1 chain", "assay": "SPR; biotinylated PEAK proteins (with or without Src phosphorylation) captured with a biotin CAPture kit; Grb2 FL, Grb2 SH2, CrkII SH2, CrkII FL monomer or dimer as analytes; Biacore 8K+, 20 °C, HBS-TP with NaCl raised to 500 mM; 1 M NaCl regeneration; steady state", "conditions": "remark: other sources report otherwise"}, "[6]": {"target": "T3, full length PEAK3 (PEAK3^FL, residues 1-473), from insect cells, phosphorylated by Src (human), Q6ZS72", "T3 chain": "T1 chain", "assay": "SPR; biotinylated PEAK proteins (with or without Src phosphorylation) captured with a biotin CAPture kit; Grb2 FL, Grb2 SH2, CrkII SH2, CrkII FL monomer or dimer as analytes; Biacore 8K+, 20 °C, HBS-TP with NaCl raised to 500 mM; 1 M NaCl regeneration; steady state", "conditions": "remark: other sources report otherwise"}, "[7]": {"target": "T4, PEAK3^FL from insect cells, phosphorylated by Src (human), Q6ZS72", "T4 chain": "T1 chain", "assay": "SPR", "conditions": "natural protein, biotin (EZ-Link NHS-PEG4-Biotin) where immobilised for SPR, phosphotyrosine at 24 (by Src in vitro, MS/MS), phosphoserine at 69, remark: other sources report otherwise"}, "[8]": {"target": "T5, PEAK3^FL from E. coli, phosphorylated by Src (human), Q6ZS72", "T5 chain": "T1 chain", "assay": "SPR", "conditions": "natural protein, biotin (EZ-Link NHS-PEG4-Biotin) where immobilised for SPR, phosphotyrosine at 24 (by Src in vitro; the MS/MS was told for PEAK3^FL in general), remark: other sources report otherwise"}, "[9]": {"target": "T6, full length PEAK3 from insect cells (PEAK3^FL, S69 phosphorylated) (human), Q6ZS72", "T6 chain": "T1 chain", "assay": "SPR", "conditions": "natural protein, biotin (EZ-Link NHS-PEG4-Biotin) where immobilised for SPR, phosphoserine at 69, remark: other sources report otherwise"}, "[10]": {"target": "full length CrkII, dimer (CrkIIFL dimer) (human), P46108", "assay": "SEC-MALS; Superdex 200 Increase 10/300 GL, 20 mM HEPES pH 7.5, 150 mM NaCl, 1 mM TCEP, 0.5 ml/min", "conditions": "remark: other sources report otherwise"}}, "note": "Non-standard residues stand in square brackets, D forms with d. pT = C[C@@H](OP(=O)(O)O)[C@H](N)C(=O)O", "data": [{"binder": "B1", "values": [{"measurement": "Kd", "setting": "[1]", "result": 9.7, "unit": "µM"}, {"measurement": "Kd", "setting": "[2]", "result": 2.56, "unit": "µM"}, {"measurement": "Kd", "setting": "[3]", "result": 1.77, "unit": "µM"}]}, {"binder": "B2", "values": [{"measurement": "Kd", "setting": "[1]", "result": "> 100", "unit": "µM"}]}, {"binder": "B3", "values": [{"measurement": "Kd", "setting": "[4]", "result": 2.11, "unit": "µM"}, {"measurement": "Kd", "setting": "[5]", "result": 7.6, "unit": "µM"}, {"measurement": "Kd", "setting": "[6]", "result": 2.18, "unit": "µM"}, {"measurement": "Kd", "setting": "[7]", "result": 2.2, "unit": "µM"}, {"measurement": "Kd", "setting": "[8]", "result": 2.1, "unit": "µM"}, {"measurement": "Kd", "setting": "[9]", "result": 2.4, "unit": "µM"}]}, {"binder": "B4", "values": [{"measurement": "Kd", "setting": "[5]", "result": 14.1, "unit": "µM"}, {"measurement": "Kd", "setting": "[6]", "result": 2.7, "unit": "µM"}, {"measurement": "Kd", "setting": "[8]", "result": 2.6, "unit": "µM"}, {"measurement": "Kd", "setting": "[9]", "result": 12.8, "unit": "µM"}]}, {"binder": "B5", "values": [{"measurement": "stoichiometry N", "setting": "[10]", "result": 2}]}, {"binder": "B6", "values": [{"measurement": "Kd", "setting": "[1]", "result": "> 100", "unit": "µM"}, {"measurement": "Kd", "setting": "[2]", "result": "> 100", "unit": "µM"}, {"measurement": "Kd", "setting": "[3]", "result": "> 100", "unit": "µM"}]}]}
